Reference: ChEMBL document CHEMBL1143118, “6-Acetyl-7,7-dimethyl-5,6,7,8-tetrahydropterin is an activator of nitric oxide synthases” (Bioorg Med Chem Lett, 2008)

Tests used:
[1] = substrate: C[C@H](O)[C@H](O)[C@H]1CNc2nc(N)[nH]c(=O)c2N1; test: (§1) Activity of tetrahydrobiopterin free nNOS
[2] = substrate: CC(=O)C1Nc2c(nc(N)[nH]c2=O)NC1(C)C; test: as §1

B1: Nitric oxide synthase 1 (Homo sapiens), P29475 (protein)
chain: MEDHMFGVQQIQPNVISVRLFKRKVGGLGFLVKERVSKPPVIISDLIRGGAAEQSGLIQAGDIILAVNGRPLVDLSYDSALEVLRGIASETHVVLILRGPEGFTTHLETTFTGDGTPKTIRVTQPLGPPTKAVDLSHQPPAGKEQPLAVDGASGPGNGPQHAYDDGQEAGSLPHANGLAPRPPGQDPAKKATRVSLQGRGENNELLKEIEPVLSLLTSGSRGVKGGAPAKAEMKDMGIQVDRDLDGKSHKPLPLGVENDRVFNDLWGKGNVPVVLNNPYSEKEQPPTSGKQSPTKNGSPSKCPRFLKVKNWETEVVLTDTLHLKSTLETGCTEYICMGSIMHPSQHARRPEDVRTKGQLFPLAKEFIDQYYSSIKRFGSKAHMERLEEVNKEIDTTSTYQLKDTELIYGAKHAWRNASRCVGRIQWSKLQVFDARDCTTAHGMFNYICNHVKYATNKGNLRSAITIFPQRTDGKHDFRVWNSQLIRYAGYKQPDGSTLGDPANVQFTEICIQQGWKPPRGRFDVLPLLLQANGNDPELFQIPPELVLEVPIRHPKFEWFKDLGLKWYGLPAVSNMLLEIGGLEFSACPFSGWYMGTEIGVRDYCDNSRYNILEEVAKKMNLDMRKTSSLWKDQALVEINIAVLYSFQSDKVTIVDHHSATESFIKHMENEYRCRGGCPADWVWIVPPMSGSITPVFHQEMLNYRLTPSFEYQPDPWNTHVWKGTNGTPTKRRAIGFKKLAEAVKFSAKLMGQAMAKRVKATILYATETGKSQAYAKTLCEIFKHAFDAKVMSMEEYDIVHLEHETLVLVVTSTFGNGDPPENGEKFGCALMEMRHPNSVQEERKSYKVRFNSVSSYSDSQKSSGDGPDLRDNFESAGPLANVRFSVFGLGSRAYPHFCAFGHAVDTLLEELGGERILKMREGDELCGQEEAFRTWAKKVFKAACDVFCVGDDVNIEKANNSLISNDRSWKRNKFRLTFVAEAPELTQGLSNVHKKRVSAARLLSRQNLQSPKSSRSTIFVRLHTNGSQELQYQPGDHLGVFPGNHEDLVNALIERLEDAPPVNQMVKVELLEERNTALGVISNWTDELRLPPCTIFQAFKYYLDITTPPTPLQLQQFASLATSEKEKQRLLVLSKGLQEYEEWKWGKNPTIVEVLEEFPSIQMPATLLLTQLSLLQPRYYSISSSPDMYPDEVHLTVAIVSYRTRDGEGPIHHGVCSSWLNRIQADELVPCFVRGAPSFHLPRNPQVPCILVGPGTGIAPFRSFWQQRQFDIQHKGMNPCPMVLVFGCRQSKIDHIYREETLQAKNKGVFRELYTAYSREPDKPKKYVQDILQEQLAESVYRALKEQGGHIYVCGDVTMAADVLKAIQRIMTQQGKLSAEDAGVFISRMRDDNRYHEDIFGVTLRTYEVTNRLRSESIAFIEESKKDTDEVFSS
kcat [1]: 0.136 s⁻¹ | kcat [2]: 0.0878 s⁻¹
